The results in this text go back to article PMC7156504, “An in vivo platform to select and evolve aggregation-resistant proteins” (Nature Communications, 2020).

Where a chain is given by its changes, count along the chain named. Where two headings read alike, the source gives them in different places.

Experiment [1] has as its target T1, biotinylated nerve growth factor (NGF) (Homo sapiens, UniProt P01138, biotin (biotinylated in-house, sites not stated)).
Experiment [2] addresses T1, biotinylated nerve growth factor (NGF). The experiment can be described thus: AlphaScreen or HTRF; epitope competition assay: biotinylated NGF (detected by streptavidin Europium cryptate) and DyLight650-labelled IgGWFL with increasing concentrations of test IgG; relative affinity. Particulars: both partners purified. Background: In Alpha technology, singlet oxygen from a donor bead excites a nearby acceptor bead.

T1 sequence (P01138 122-241): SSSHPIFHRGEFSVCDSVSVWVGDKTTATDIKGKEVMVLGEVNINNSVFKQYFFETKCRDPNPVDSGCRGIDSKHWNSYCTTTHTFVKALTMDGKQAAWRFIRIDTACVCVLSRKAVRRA

B1: IgG STT (scFv STT) (antibody, V domains shown)
VH: QVQLVQSGAEVKKPGSSVKVSCKASGGTFSTGAFTWVRQAPGQGLEWMGGIIPIFGLTNLAQNFQGRVTITADESTSTVYMELSSLRSEDTAVYYCARSSRIYDLNPSLTAYYDMDVWGQGTMVTVSS
VL: QSVLTQPPSVSAAPGQKVTISCSGSSSDIGNNYVSWYQQLPGTAPKLLIYDNNKRPSGIPDRFSGSKSGTSATLGITGLQTGDEADYYCGTWDSSLSAWVFGGGTKLTVL
On to B1, for which the binding result in experiment [1] is on record as “binds”.

B2: evolved scFvWFL variant 176 reformatted as IgG1 (antibody, V domains shown)
VH: B1 VH with Q6R, S30W, T31F
VL: B1 VL
notes: human IgG1 heavy chain constant region of the TM-YTE IgG1 expression vector; human light chain constant region of the expression vector; IgG1, TM-YTE backbone; selected by the TPBLA from an error-prone PCR library of scFvWFL; source: HEK293/EBNA, co-transfected, purified from the culture medium (Protein A)
In the case of B2, the binding result in experiment [2] is “binds”.

B3: evolved scFvWFL variant 37 reformatted as IgG1 (antibody, V domains shown)
VH: B1 VH with Q6P, S30W, T31F, I54T
VL: B1 VL with S25P
notes: retains W35, F36 and L64; human IgG1 heavy chain constant region of the TM-YTE IgG1 expression vector; human light chain constant region of the expression vector; IgG1, TM-YTE backbone; retains the original WFL residues (W35, F36 and L64); source: HEK293/EBNA, co-transfected, purified from the culture medium (Protein A)
With B3, the binding result in experiment [2] is listed as “binds”.

B4: evolved scFvWFL variant 126 reformatted as IgG1 (antibody, V domains shown)
VH: B1 VH with S30W, T31F, I51F, F55S
VL: B1 VL
notes: as for B2
On to B4, for which, in experiment [2], the binding result is “binds”.

B5: DyLight650-labelled IgGWFL (antibody, V domains shown)
VH: B1 VH with S30W, T31F
VL: B1 VL
notes: as the VH of m1; human IgG1 heavy chain constant region of the TM-YTE IgG1 expression vector; as the VL of m1; human light chain constant region of the expression vector; same protein as m1; also called labelled MEDI1912; source: HEK293/EBNA, co-transfected, purified from the culture medium (Protein A); labelled with DyLight650
For the molecule B5, the binding result in experiment [2] is “binds”.

B6: evolved scFvWFL variant 128 reformatted as IgG1 (antibody, V domains shown)
VH: B1 VH with S30W, T31F, Y112D
VL: B1 VL with K17E, L40P, T43A
notes: as for B3
Turning to B6, the binding result in experiment [2] is reported as “binds”.

B7: evolved scFvWFL variant 59 reformatted as IgG1 (antibody, V domains shown)
VH: B1 VH with S30R, T31F, V37A, V68A
VL: B1 VL with I49T, D61G
notes: as for B2
B7: the binding result in experiment [2] is “binds”.

B8: evolved scFvWFL variant 11 reformatted as IgG1 (antibody, V domains shown)
VH: B1 VH with Q6R, S30W, T31F, T110A
VL: B1 VL with S21P, I76V
notes: as for B2
For B8, the binding result in experiment [2] is on record as “binds”.

B9: evolved scFvWFL variant 139 reformatted as IgG1 (antibody, V domains shown)
VH: B1 VH with S25G, S30W, T31S, I102T
VL: B1 VL with S71T
notes: human IgG1 heavy chain constant region of the TM-YTE IgG1 expression vector; human light chain constant region of the expression vector; IgG1, TM-YTE backbone; the best performing variant of the screen; source: HEK293/EBNA, co-transfected, purified from the culture medium (Protein A)
For B9, the binding result in experiment [2] is reported as “binds”.

B10: evolved scFvWFL variant 16 reformatted as IgG1 (antibody, V domains shown)
VH: B1 VH with S30W, T31S, F55S, V79A
VL: B1 VL with F101I
notes: as for B2
For the molecule B10, in experiment [2], the binding result was “binds”.

B11: evolved scFvWFL variant 72 reformatted as IgG1 (antibody, V domains shown)
VH: B1 VH with F29S, S30W, T31F, I51T, E89D, D116G
VL: B1 VL with N31D
notes: as for B2
As to B11, in experiment [2], the binding result is reported as “binds”.

B12: evolved scFvWFL variant 130 reformatted as IgG1 (antibody, V domains shown)
VH: B1 VH with T28A, S30W, T31F, I52T, L57H
VL: B1 VL
notes: as for B2
Take B12: the binding result in experiment [2] is on record as “binds”.

B13: MEDI578 (the parent antibody prior to affinity maturation into MEDI1912) (antibody, V domains shown)
VH: B1 VH with G32Y, A33G, F34I, T35S, G56D, L57T, T58G, L60S, N63S, V79A
VL: B1 VL with D28N
notes: VH of MEDI578; VL of MEDI578; The entry is printed as 5J7Z in the methods; also called IgG_(MEDI578)
In the case of B13, the binding result in experiment [2] is given as “binds”.
